In patent US20190015483A1 (CSL BEHRING RECOMBINANT FACILITY, published 2019):
Residue numbers refer to the chain shown, from its start. Names may count otherwise.

T1: recombinant Factor VIII (CSL627, rVIII-SingleChain) (Homo sapiens (Human), UniProt P00451 20-2351)
T1 construct: also called FVIII
T1 sequence: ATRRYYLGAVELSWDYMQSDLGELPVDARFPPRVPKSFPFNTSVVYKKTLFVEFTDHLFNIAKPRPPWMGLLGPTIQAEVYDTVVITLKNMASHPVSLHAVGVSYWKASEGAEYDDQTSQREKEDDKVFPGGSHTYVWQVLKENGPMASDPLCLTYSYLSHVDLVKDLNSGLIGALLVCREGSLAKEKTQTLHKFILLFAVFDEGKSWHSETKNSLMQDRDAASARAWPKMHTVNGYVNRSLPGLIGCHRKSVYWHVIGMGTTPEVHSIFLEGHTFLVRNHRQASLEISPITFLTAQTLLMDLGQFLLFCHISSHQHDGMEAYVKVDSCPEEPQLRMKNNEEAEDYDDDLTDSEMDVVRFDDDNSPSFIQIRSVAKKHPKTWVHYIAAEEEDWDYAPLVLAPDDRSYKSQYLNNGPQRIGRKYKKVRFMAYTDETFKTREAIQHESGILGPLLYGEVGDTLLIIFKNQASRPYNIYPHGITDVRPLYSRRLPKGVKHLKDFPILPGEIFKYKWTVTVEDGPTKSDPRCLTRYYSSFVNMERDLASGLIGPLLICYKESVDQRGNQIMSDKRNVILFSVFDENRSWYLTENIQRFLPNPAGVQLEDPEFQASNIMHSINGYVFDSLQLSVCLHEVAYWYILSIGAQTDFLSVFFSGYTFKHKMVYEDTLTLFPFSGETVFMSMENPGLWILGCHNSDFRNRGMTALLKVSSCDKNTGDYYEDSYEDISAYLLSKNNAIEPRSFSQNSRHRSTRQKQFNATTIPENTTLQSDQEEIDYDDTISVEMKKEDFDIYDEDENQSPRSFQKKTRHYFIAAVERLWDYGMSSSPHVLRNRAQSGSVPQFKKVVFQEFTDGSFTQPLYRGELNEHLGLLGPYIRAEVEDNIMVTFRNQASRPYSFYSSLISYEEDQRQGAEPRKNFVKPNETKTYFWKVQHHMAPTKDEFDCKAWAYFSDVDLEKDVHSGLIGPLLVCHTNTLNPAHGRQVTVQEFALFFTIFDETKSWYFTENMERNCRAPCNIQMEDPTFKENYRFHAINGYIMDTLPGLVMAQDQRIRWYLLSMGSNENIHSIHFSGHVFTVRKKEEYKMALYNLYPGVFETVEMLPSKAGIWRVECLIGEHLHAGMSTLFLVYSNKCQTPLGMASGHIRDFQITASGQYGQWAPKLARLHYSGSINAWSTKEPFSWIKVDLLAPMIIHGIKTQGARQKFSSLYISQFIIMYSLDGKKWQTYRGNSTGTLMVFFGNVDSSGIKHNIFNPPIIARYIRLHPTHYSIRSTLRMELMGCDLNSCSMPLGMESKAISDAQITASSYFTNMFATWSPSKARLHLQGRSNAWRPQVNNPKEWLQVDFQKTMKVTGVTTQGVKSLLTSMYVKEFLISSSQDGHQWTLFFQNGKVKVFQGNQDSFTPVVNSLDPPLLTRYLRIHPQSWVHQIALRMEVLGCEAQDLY

B1: Hu-vWF[764-1270]-8His S766W-S806Q (other)
chain: SLWCRPPMVKLVCPADNLRAEGLECTKTCQNYDLECMSMGCVQGCLCPPGMVRHENRCVALERCPCFHQGKEYAPGETVKIGCNTCVCRDRKWNCTDHVCDATCSTIGMAHYLTFDGLKYLFPGECQYVLVQDYCGSNPGTFRILVGNKGCSHPSVKCKKRVTILVEGGEIELFDGEVNVKRPMKDETHFEVVESGRYIILLLGKALSVVWDRHLSISVVLKQTYQEKVCGLCGNFDGIQNNDLTSSNLQVEEDPVDFGNSWKVSSQCADTRKVPLDSSPATCHNNIMKQTMVDSSCRILTSDVFQDCNKLVDPEPYLDVCIYDTCSCESIGDCACFCDTIAAYAHVCAQHGKVVTWRTATLCPQSCEERNLRENGYECEWRYNSCAPACQVTCQHPEPLACPVQCVEGCHAHCPPGKILDELLQTCVDPEDCPVCEVAGRRFASGKKVTLNPSDPEHCQICHCDVVNLTCEACQEPGGLVVPPTDAPVSPTTLYVEDISEPPLHDFHHHHHHHH
B2: Hu-vWF[764-1270]-8His S766Y-P769S (other)
chain: B1 chain with W3Y, P6S, Q43S
B3: Hu-vWF[764-1270]-8His S766Y-P769F (other)
chain: B1 chain with W3Y, P6F, Q43S
B4: Hu-vWF[764-1270]-8His S766Y-P769A (other)
chain: B1 chain with W3Y, P6A, Q43S
B5: Hu-vWF[764-1270]-8His S766Y-R768L (other)
chain: B1 chain with W3Y, R5L, Q43S
B6: Hu-vWF[764-1270]-8His S766Y-P769D (other)
chain: B1 chain with W3Y, P6D, Q43S
B7: Hu-vWF[764-1270]-8His S766Y-R768D (other)
chain: B1 chain with W3Y, R5D, Q43S
B8: Hu-vWF[764-1270]-8His S766Y-R768M (other)
chain: B1 chain with W3Y, R5M, Q43S
B9: Hu-vWF[764-1270]-8His S766Y-P769Q (other)
chain: B1 chain with W3Y, P6Q, Q43S
B10: Hu-vWF[764-1270]-8His S766Y-P769L (other)
chain: B1 chain with W3Y, P6L, Q43S
B11: Hu-vWF[764-1270]-8His S766Y-R768G (other)
chain: B1 chain with W3Y, R5G, Q43S
B12: Hu-vWF[764-1270]-8His S766Y-P769W (other)
chain: B1 chain with W3Y, P6W, Q43S
B13: Hu-vWF[764-1270]-8His S766Y-P769M (other)
chain: B1 chain with W3Y, P6M, Q43S
B14: Hu-vWF[764-1270]-8His S766Y-R768F (other)
chain: B1 chain with W3Y, R5F, Q43S
B15: Hu-vWF[764-1270]-8His S766Y-R768K (other)
chain: B1 chain with W3Y, R5K, Q43S
B16: Hu-vWF[764-1270]-8His S766W-S806T (other)
chain: B1 chain with Q43T
B17: Hu-vWF[764-1270]-8His S766Y-P769V (other)
chain: B1 chain with W3Y, P6V, Q43S
B18: Hu-vWF[764-1270]-8His S766Y-R768H (other)
chain: B1 chain with W3Y, R5H, Q43S
B19: Hu-vWF[764-1270]-8His S766W-S806Y (other)
chain: B1 chain with Q43Y
B20: Hu-vWF[764-1270]-8His S766Y-P769Y (other)
chain: B1 chain with W3Y, P6Y, Q43S
B21: Hu-vWF[764-1270]-8His S766Y-P769K (other)
chain: B1 chain with W3Y, P6K, Q43S
B22: Hu-vWF[764-1270]-8His S766Y-P769N (other)
chain: B1 chain with W3Y, P6N, Q43S
B23: Hu-vWF[764-1270]-8His S766Y-R768I (other)
chain: B1 chain with W3Y, R5I, Q43S
B24: Hu-vWF[764-1270]-8His S766Y-P769G (other)
chain: B1 chain with W3Y, P6G, Q43S
B25: Hu-vWF[764-1270]-8His S766W-S806W (other)
chain: B1 chain with Q43W
B26: Hu-vWF[764-1270]-8His S766Y-P769I (other)
chain: B1 chain with W3Y, P6I, Q43S
B27: Hu-vWF[764-1270]-8His S766W-S806R (other)
chain: B1 chain with Q43R
B28: Hu-vWF[764-1270]-8His S766Y-P769T (other)
chain: B1 chain with W3Y, P6T, Q43S
B29: Hu-vWF[764-1270]-8His S766W-S806V (other)
chain: B1 chain with Q43V
B30: Hu-vWF[764-1270]-8His S766Y-P769E (other)
chain: B1 chain with W3Y, P6E, Q43S
B31: Hu-vWF[764-1270]-8His S766Y-R768E (other)
chain: B1 chain with W3Y, R5E, Q43S
B32: Hu-vWF[764-1270]-8His S766Y-P769H (other)
chain: B1 chain with W3Y, P6H, Q43S
B33: Hu-vWF[764-1270]-8His S766Y-P769R (other)
chain: B1 chain with W3Y, P6R, Q43S
B34: Hu-vWF[764-1270]-8His S766Y-R768A (other)
chain: B1 chain with W3Y, R5A, Q43S

Target: T1, recombinant Factor VIII (CSL627, …)
Assay: SPR, anti-His capture, FVIII injected, 37 C
Description: Binding kinetics were investigated by surface plasmon resonance using a Biacore 4000 biosensor at 37° C. Each mutant was captured from cell culture medium to a density of 40-150 RU on a CM-5 sensor chip pre-immobilised with anti-His antibody (14,000 RU). In an initial screening study, FVIII was injected over the captured mutants for 5 minutes at 1 nM and dissociation monitored for 5 minutes.
All sensorgrams were double referenced by subtraction of signals from a reference spot (containing only immobilised anti His antibody) and from a blank injection. Binding kinetics were determined by fitting the double referenced sensorgrams to a 1:1 kinetic model.

Binder	Kd [pM]	koff [s⁻¹]	kon [M⁻¹ s⁻¹]	binding result
B1	407	0.00176	4.33e+06	–
B2	113	0.000511	4.51e+06	–
B3	77.2	0.000427	5.54e+06	–
B4	106	0.000519	4.9e+06	–
B5	129	0.000548	4.24e+06	–
B6	165	0.000763	4.63e+06	–
B7	908	0.00448	4.94e+06	–
B8	196	0.000801	4.08e+06	–
B9	–	–	–	no binding
B10	91.7	0.00059	6.44e+06	–
B11	320	0.00102	3.2e+06	–
B12	88.2	0.000421	4.77e+06	–
B13	108	0.000511	4.75e+06	–
B14	279	0.00182	6.51e+06	–
B15	109	0.000417	3.83e+06	–
B16	125	0.000654	5.25e+06	–
B17	84.9	0.000565	6.65e+06	–

Binder	Kd [pM]	koff [s⁻¹]	kon [M⁻¹ s⁻¹]	binding result
B18	172	0.00069	4.02e+06	–
B19	–	–	–	no binding
B20	84.7	0.000396	4.68e+06	–
B21	60.7	0.000383	6.31e+06	–
B22	32.5	0.00052	1.6e+07	–
B23	179	0.000899	5.03e+06	–
B24	212	0.000783	3.7e+06	–
B25	–	–	–	no binding
B26	–	–	–	no binding
B27	1290	0.0107	8.28e+06	–
B28	97.9	0.0005	5.11e+06	–
B29	149	0.000619	4.17e+06	–
B30	93.6	0.000414	4.42e+06	–
B31	569	0.00322	5.65e+06	–
B32	80.9	0.000417	5.16e+06	–
B33	45	0.000295	6.55e+06	–
B34	212	0.00148	6.99e+06	–
